Key:
[1] = target: CH505 w100.B6 gp120 (HIV-1); experiment: ELISA, gp120 on plate
CH505 M11 gp120 (HIV-1) = experiment: ELISA, gp120 on plate
[2] = target: CH505 transmitted/founder (TF) gp120 (HIV-1); experiment: ELISA, gp120 on plate
[3] = target: CH505 w030.28 gp120 (HIV-1); experiment: ELISA, gp120 on plate
[4] = target: CH505 w053.31 gp120 (HIV-1); experiment: ELISA, gp120 on plate
CH505 M5 gp120 (HIV-1) = experiment: ELISA, gp120 on plate
[5] = target: CH505 w078.33 gp120 (HIV-1); experiment: ELISA, gp120 on plate
[6] = target: CH505 w078.15 gp120 (HIV-1); experiment: ELISA, gp120 on plate
[7] = target: CH505 w020.14 gp120 (HIV-1); experiment: ELISA, gp120 on plate
[8] = target: CH505 w053.16 gp120 (HIV-1); experiment: ELISA, gp120 on plate
[9] = target: CH505 w030.21 gp120 (HIV-1); experiment: ELISA, gp120 on plate
[10] = target: HIV-1 CH0505TF.G458Y Env on Env-pseudotyped virus produced in 293T cells (HIV-1); experiment: cell-based or functional assay
[11] = target: HIV-1 CH0505TF (CH505 transmitted/founder) Env on Env-pseudotyped virus produced in 293T cells (HIV-1); experiment: cell-based or functional assay
[12] = target: HIV-1 CH0505TF.N280D Env on Env-pseudotyped virus produced in 293T cells (HIV-1); experiment: cell-based or functional assay
[13] = target: HIV-1 CH0505TF.S365P Env on Env-pseudotyped virus produced in 293T cells (HIV-1); experiment: cell-based or functional assay
[14] = target: CH0505TF.gly3.461 Env, Env-pseudotyped virus produced in 293T cells (HIV-1); experiment: cell-based or functional assay
[15] = target: CH0505TF.gly4 Env, Env-pseudotyped virus produced in 293T cells (HIV-1); experiment: cell-based or functional assay
[16] = target: CH0505TF.gly3.276 Env, Env-pseudotyped virus produced in 293T cells (HIV-1); experiment: cell-based or functional assay
[17] = target: CH0505TF.G458Y Env, Env-pseudotyped virus produced in 293T cells (HIV-1); experiment: cell-based or functional assay
[18] = target: CH0505TF.gly3.276 Env, pseudotyped virus produced in 293S GnTI- cells (HIV-1); experiment: cell-based or functional assay
[19] = target: CH0505TF.gly3.461 Env, pseudotyped virus produced in 293S GnTI- cells (HIV-1); experiment: cell-based or functional assay
[20] = target: CH0505TF.G458Y Env, pseudotyped virus produced in 293S GnTI- cells (HIV-1); experiment: cell-based or functional assay
[21] = target: CH0505TF.gly4 Env, pseudotyped virus produced in 293S GnTI- cells (HIV-1); experiment: cell-based or functional assay
[22] = target: CH0505.w4.3 Env, Env-pseudotyped virus produced in 293T cells (HIV-1); experiment: cell-based or functional assay
[23] = target: CH0505TF Env, Env-pseudotyped virus produced in 293T cells (HIV-1); experiment: cell-based or functional assay
[24] = target: CH0505TF.gly3.197 Env, pseudotyped virus produced in 293S GnTI- cells (HIV-1); experiment: cell-based or functional assay
[25] = target: CH0505TF.gly3.197 Env, Env-pseudotyped virus produced in 293T cells (HIV-1); experiment: cell-based or functional assay
[26] = target: CH0505TF Env, pseudotyped virus produced in 293S GnTI- cells (HIV-1); experiment: cell-based or functional assay
[27] = target: HIV-1 Env 426c, Env-pseudotyped virus produced in 293S GnTI- cells (Man5-enriched) (HIV-1 clade C strain 426c); experiment: cell-based or functional assay
[28] = target: HIV-1 clade C strain 426c Env on Env-pseudotyped virus produced in 293T cells (HIV-1); experiment: cell-based or functional assay
[29] = target: HIV-1 Env 426c.DM (N460D.N463D), Env-pseudotyped virus produced in 293T cells (HIV-1 clade C strain 426c); experiment: cell-based or functional assay
[30] = target: HIV-1 Env 426c.TM (N276D.N460D.N463D), Env-pseudotyped virus produced in 293S GnTI- cells (Man5-enriched) (HIV-1 clade C strain 426c); experiment: cell-based or functional assay
[31] = target: HIV-1 426c.TM (N276D/N460D/N463D) Env on Env-pseudotyped virus produced in 293T cells (HIV-1); experiment: cell-based or functional assay
[32] = target: HIV-1 Env 426c.TM4 (S278R.G471S.N460D.N463D), Env-pseudotyped virus produced in 293S GnTI- cells (Man5-enriched) (HIV-1 clade C strain 426c); experiment: cell-based or functional assay
[33] = target: HIV-1 426c.SM (N276D) Env on Env-pseudotyped virus produced in 293s/GnTI-/- cells (Man5-enrichment) (HIV-1); experiment: cell-based or functional assay
[34] = target: HIV-1 Env 426c.SM (N276D), Env-pseudotyped virus produced in 293S GnTI- cells (Man5-enriched) (HIV-1 clade C strain 426c); experiment: cell-based or functional assay
[35] = target: HIV-1 clade C strain 426c Env on Env-pseudotyped virus produced in 293s/GnTI-/- cells (Man5-enrichment) (HIV-1); experiment: cell-based or functional assay
[36] = target: HIV-1 Env 426c.SM (N276D), Env-pseudotyped virus produced in 293T cells (HIV-1 clade C strain 426c); experiment: cell-based or functional assay
[37] = target: HIV-1 Env 426c.TM (N276D.N460D.N463D), Env-pseudotyped virus produced in 293T cells (HIV-1 clade C strain 426c); experiment: cell-based or functional assay
[38] = target: HIV-1 Env 426c.DM (N460D.N463D), Env-pseudotyped virus produced in 293S GnTI- cells (Man5-enriched) (HIV-1 clade C strain 426c); experiment: cell-based or functional assay
[39] = target: HIV-1 Env 426c, Env-pseudotyped virus produced in 293T cells (HIV-1 clade C strain 426c); experiment: cell-based or functional assay
[40] = target: HIV-1 426c.TM (N276D/N460D/N463D) Env on Env-pseudotyped virus produced in 293s/GnTI-/- cells (Man5-enrichment) (HIV-1); experiment: cell-based or functional assay
[41] = target: HIV-1 426c.DM (N460D/N463D) Env on Env-pseudotyped virus produced in 293T cells (HIV-1); experiment: cell-based or functional assay
[42] = target: HIV-1 426c.DM (N460D/N463D) Env on Env-pseudotyped virus produced in 293s/GnTI-/- cells (Man5-enrichment) (HIV-1); experiment: cell-based or functional assay
[43] = target: HIV-1 Env 426c.TM4 (S278R.G471S.N460D.N463D), Env-pseudotyped virus produced in 293T cells (HIV-1 clade C strain 426c); experiment: cell-based or functional assay
[44] = target: HIV-1 426c.SM (N276D) Env on Env-pseudotyped virus produced in 293T cells (HIV-1); experiment: cell-based or functional assay

## CH103 lineage intermediate ancestor IA1 (antibody)
[1]
  log AUC: 12.2 log AUC
CH505 M11 gp120 (HIV-1)
  log AUC: 12.2 log AUC
[2]
  log AUC: 10.4 log AUC
[3]
  log AUC: 10.1 log AUC
[4]
  log AUC: 13.4 log AUC
CH505 M5 gp120 (HIV-1)
  log AUC: 7 log AUC
[5]
  log AUC: 8.2 log AUC
[6]
  log AUC: 10.9 log AUC
[7]
  log AUC: 10.3 log AUC
[8]
  log AUC: 8.8 log AUC
[9]
  log AUC: 11.8 log AUC

## N6 (antibody)
[10]
  IC50 (µg/ml) in TZM-bl: 0.02 µg/mL
[11]
  IC50 (µg/ml) in TZM-bl: 0.06 µg/mL
[12]
  IC50 (µg/ml) in TZM-bl: > 17 µg/mL
[13]
  IC50 (µg/ml) in TZM-bl: 0.02 µg/mL
[14]
  IC50 (µg/ml) in TZM-bl: 0.004 µg/mL
[15]
  IC50 (µg/ml) in TZM-bl: 0.001 µg/mL
[16]
  IC50 (µg/ml) in TZM-bl: 0.003 µg/mL
[17]
  IC50 (µg/ml) in TZM-bl: 0.02 µg/mL
[18]
  IC50 (µg/ml) in TZM-bl: 0.004 µg/mL
[19]
  IC50 (µg/ml) in TZM-bl: 0.002 µg/mL
[20]
  IC50 (µg/ml) in TZM-bl: 0.008 µg/mL
[21]
  IC50 (µg/ml) in TZM-bl: 0.001 µg/mL
[22]
  IC50 (µg/ml) in TZM-bl: 0.01 µg/mL
[23]
  IC50 (µg/ml) in TZM-bl: 0.06 µg/mL
[24]
  IC50 (µg/ml) in TZM-bl: 0.003 µg/mL
[25]
  IC50 (µg/ml) in TZM-bl: 0.01 µg/mL
[26]
  IC50 (µg/ml) in TZM-bl: 0.016 µg/mL

## CH106 (antibody)
[1]
  log AUC: 11.8 log AUC
CH505 M11 gp120 (HIV-1)
  log AUC: 12.8 log AUC
[2]
  log AUC: 11.3 log AUC
[3]
  log AUC: 11.7 log AUC
[4]
  log AUC: 13.4 log AUC
CH505 M5 gp120 (HIV-1)
  log AUC: 8.4 log AUC
[5]
  log AUC: 9.5 log AUC
[6]
  log AUC: 11 log AUC
[7]
  log AUC: 11.2 log AUC
[8]
  log AUC: 9.8 log AUC
[9]
  log AUC: 10.9 log AUC

## VRC-CH31 (antibody)
[10]
  IC50 (µg/ml) in TZM-bl: < 0.01 µg/mL
[11]
  IC50 (µg/ml) in TZM-bl: 0.03 µg/mL
[12]
  IC50 (µg/ml) in TZM-bl: > 25 µg/mL
[13]
  IC50 (µg/ml) in TZM-bl: 1.2 µg/mL
[14]
  IC50 (µg/ml) in TZM-bl: 0.09 µg/mL
[27]
  IC50 (µg/ml) in TZM-bl: 0.04 µg/mL
[28]
  ID50/IC50 in TZM-bl: 0.62 µg/mL
[29]
  IC50 (µg/ml) in TZM-bl: 0.73 µg/mL
[15]
  IC50 (µg/ml) in TZM-bl: 0.002 µg/mL
[30]
  IC50 (µg/ml) in TZM-bl: 1.6 µg/mL
[16]
  IC50 (µg/ml) in TZM-bl: 0.002 µg/mL
[31]
  ID50/IC50 in TZM-bl: > 25 µg/mL
[32]
  IC50 (µg/ml) in TZM-bl: 0.01 µg/mL
[33]
  ID50/IC50 in TZM-bl: 0.7 µg/mL
[17]
  IC50 (µg/ml) in TZM-bl: 0.023 µg/mL
[18]
  IC50 (µg/ml) in TZM-bl: 0.001 µg/mL
[34]
  IC50 (µg/ml) in TZM-bl: 0.7 µg/mL
[35]
  ID50/IC50 in TZM-bl: 0.04 µg/mL
[36]
  IC50 (µg/ml) in TZM-bl: > 25 µg/mL
[37]
  IC50 (µg/ml) in TZM-bl: > 25 µg/mL
[38]
  IC50 (µg/ml) in TZM-bl: 0.02 µg/mL
[39]
  IC50 (µg/ml) in TZM-bl: 0.62 µg/mL
[19]
  IC50 (µg/ml) in TZM-bl: 0.007 µg/mL
[20]
  IC50 (µg/ml) in TZM-bl: 0.06 µg/mL
[21]
  IC50 (µg/ml) in TZM-bl: 0.001 µg/mL
[40]
  ID50/IC50 in TZM-bl: 1.6 µg/mL
[41]
  ID50/IC50 in TZM-bl: 0.73 µg/mL
[22]
  IC50 (µg/ml) in TZM-bl: 0.05 µg/mL
[23]
  IC50 (µg/ml) in TZM-bl: 0.03 µg/mL
[42]
  ID50/IC50 in TZM-bl: 0.02 µg/mL
[24]
  IC50 (µg/ml) in TZM-bl: 0.01 µg/mL
[43]
  IC50 (µg/ml) in TZM-bl: 0.15 µg/mL
[25]
  IC50 (µg/ml) in TZM-bl: 0.01 µg/mL
[44]
  ID50/IC50 in TZM-bl: > 25 µg/mL
[26]
  IC50 (µg/ml) in TZM-bl: 0.04 µg/mL

Reference: patent US20230140293A1
